The record followed here is patent EP2481750A1 (Mayo Foundation for Medical Education and Research, dated 2012).

This assay concerns the target T1, human B7-DC (human, UniProt Q9BQ51 20-273).
T1 construct: whole, on cells; also called hB7.DC; human B7-DC orthologue
T1 sequence (looked up): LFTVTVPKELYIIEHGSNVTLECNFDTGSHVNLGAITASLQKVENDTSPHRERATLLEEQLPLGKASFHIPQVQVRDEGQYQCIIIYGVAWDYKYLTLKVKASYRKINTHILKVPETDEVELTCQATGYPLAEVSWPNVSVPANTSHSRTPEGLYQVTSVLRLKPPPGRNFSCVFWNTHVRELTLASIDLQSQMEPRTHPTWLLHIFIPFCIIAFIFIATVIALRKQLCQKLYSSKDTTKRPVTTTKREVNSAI
Nature of the assay: flow cytometry on Ltk cells transiently transfected with human B7-DC.

B1: sHIgM12 (pentameric human monoclonal IgM/kappa antibody, B7-DC cross-linking antibody) (antibody)
heavy: QVQLQESGPGLLKPSETLSLTCTVSGGSVSLYYWSWIRQSPGKEPEWIGYIYSSGSTDYNPSLRSRVTISLDTSNNRFSLNLRSVTAADTAVYWCARSASIRGWFDPWGQGTLVTVSSGSASAPTLFPLVSCENSPSDTSSVAVGCLAQDFLPDSITFSWKYKNNSDISSTRGFPSVLRGGKYAATSQVLLPSKDVMQGTDEHVVCKVQHPNGNKEKNVPLPVIAELPPKVSVFVPPRDGFFGNPRKSKLICQATGFSPRQIQVSWLREGKQVGSGVTTDQVQAEAKESGPTTYKVTSTLTIKESDWLSQSMFTCRVDHRGLTFQQNASSMCVPDQDTAIRVFAIPPSFASIFLTKSTKLTCLVTDLTTYDSVTISWTRQNGEAVKTHTNISESHPNATFSAVGEASICEDDWNSGERFTCTVTHTDLPSPLKQTISRPKGVALHRPDVYLLPPAREQLNLRESATITCLVTGFSPADVFVQWMQRGQPLSPEKYVTSAPMPEPQAPGRYFAHSILTVSEEEWNTGETYTCVVAHEALPNRVTERTVDKSTGKPTLYNVSLVMSDTAGTCY
light: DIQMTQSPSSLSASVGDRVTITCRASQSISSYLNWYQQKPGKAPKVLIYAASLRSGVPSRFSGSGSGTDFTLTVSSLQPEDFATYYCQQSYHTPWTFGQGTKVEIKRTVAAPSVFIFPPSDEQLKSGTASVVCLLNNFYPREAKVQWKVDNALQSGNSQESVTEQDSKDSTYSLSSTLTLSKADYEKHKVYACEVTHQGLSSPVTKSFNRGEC
notes: also called intact sHIgM12; pentameric sHIgM12
For the molecule B1, the binding result was “binds”.
